The assay addresses Pi65-nLUC (rice (Oryza sativa ssp. japonica cv. GY129)). Put plainly: split reporter (BiFC, NanoBiT); NanoLuc luciferase complementation (nLUC/cLUC fusions, 35S promoter) in co-infiltrated Nicotiana benthamiana leaves, 48-72 h at 22 °C; whole-leaf luminescence with furimazine, 1-min exposure.

B1: OsAPx4-cLUC (enzyme)
chain: MAAPVVDAEYLRQVDRARRHLRALISSKGCAPIMLRLAWHDAGTYDVNTKTGGANGSIRYEEEYTHGSNAGLKIAIDLLEPIKAKSPKITYADLYQLAGVVAVEVTGGPTVEFIPGRRDSSVCPREGRLPDAKKGALHLRDIFYRMGLSDKDIVALSGGHTLGRAHPERSGFEGAWTQEPLKFDNSYFLELLKGESEGLLKLPTDKALLEDPSFRRYVDLYARDEDTFFKDYAESHKKLSELGFTPRSSGPASTKSDLSTGAVLAQSAVGVAVAAAVVIVSYLYEASKKSK
Consider B1, for which the luminescence, fold over the negative controls is 12.3 fold.
